Data on four substances can be found in article PMC6825195.

Test [1] deals with apoptotic protease-activating factor 1 (mouse (endogenous in Cytc knockout embryonic fibroblasts)) (UniProt O88879).
Test [2] concerns the target cytochrome c oxidase, regulatory competent, from bovine liver (bovine).

Chain of UniProt O88879 (O88879 whole entry): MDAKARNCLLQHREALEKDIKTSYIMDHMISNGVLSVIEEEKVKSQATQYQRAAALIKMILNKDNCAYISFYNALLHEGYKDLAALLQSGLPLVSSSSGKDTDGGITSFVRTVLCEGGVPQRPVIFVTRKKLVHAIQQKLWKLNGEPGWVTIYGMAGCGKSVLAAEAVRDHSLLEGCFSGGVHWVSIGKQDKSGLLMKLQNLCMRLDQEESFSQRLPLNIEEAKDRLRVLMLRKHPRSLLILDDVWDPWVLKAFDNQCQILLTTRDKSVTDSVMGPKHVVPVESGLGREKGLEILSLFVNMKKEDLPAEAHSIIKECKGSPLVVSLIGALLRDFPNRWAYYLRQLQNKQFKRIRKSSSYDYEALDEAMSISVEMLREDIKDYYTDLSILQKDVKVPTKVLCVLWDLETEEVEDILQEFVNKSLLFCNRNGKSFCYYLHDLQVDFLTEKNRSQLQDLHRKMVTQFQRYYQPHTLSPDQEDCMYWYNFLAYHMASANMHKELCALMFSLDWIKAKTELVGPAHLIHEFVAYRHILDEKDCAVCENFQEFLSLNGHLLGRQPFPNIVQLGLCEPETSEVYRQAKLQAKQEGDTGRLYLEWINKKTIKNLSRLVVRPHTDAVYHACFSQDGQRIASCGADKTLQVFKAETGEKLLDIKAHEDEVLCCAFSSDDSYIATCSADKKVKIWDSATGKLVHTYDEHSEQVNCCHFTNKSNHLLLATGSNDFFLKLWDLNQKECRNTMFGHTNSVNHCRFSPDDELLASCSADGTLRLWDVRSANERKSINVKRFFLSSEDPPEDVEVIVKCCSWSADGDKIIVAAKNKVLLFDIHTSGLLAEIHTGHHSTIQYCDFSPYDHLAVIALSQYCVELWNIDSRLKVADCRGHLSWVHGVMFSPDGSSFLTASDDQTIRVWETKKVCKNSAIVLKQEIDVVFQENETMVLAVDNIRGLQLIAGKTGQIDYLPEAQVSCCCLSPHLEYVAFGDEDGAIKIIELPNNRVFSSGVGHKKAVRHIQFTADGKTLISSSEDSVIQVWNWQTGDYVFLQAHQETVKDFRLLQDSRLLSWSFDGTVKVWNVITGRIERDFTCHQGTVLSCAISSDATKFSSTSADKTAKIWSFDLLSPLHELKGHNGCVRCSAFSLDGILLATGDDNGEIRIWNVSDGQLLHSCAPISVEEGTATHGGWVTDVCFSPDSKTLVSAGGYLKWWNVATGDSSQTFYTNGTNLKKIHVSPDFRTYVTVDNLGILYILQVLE

In the case of “T58A cytochrome c (from UniProt P62897 1-105) (natural protein)”, the cell-free caspase-3 activity (DEVD-R110 cleavage) in cytosolic extract of Cytc knockout fibroblasts with 20 µg/mL Cytc, reduction compared to WT (% reduction compared to WT) in test [1] turned out to be 50. Besides, in test [2], the apparent Km of Cytc in the reaction with cow liver COX (150 nM; 0-20 µM Cytc; oxygen consumption, polarography, 25 °C) is 4.5 µM.
Regarding “T58I cytochrome c (from UniProt P62897 1-105) (natural protein)”, the cell-free caspase-3 activity (DEVD-R110 cleavage) in cytosolic extract of Cytc knockout fibroblasts with 20 µg/mL Cytc, reduction compared to WT (% reduction compared to WT) in test [1] turned out to be 60. Also, in test [2], the apparent Km of Cytc in the reaction with cow liver COX (150 nM; 0-20 µM Cytc; oxygen consumption, polarography, 25 °C) was determined as 2.5 µM and the oxygen consumption rate (turnover) of purified cow liver COX with 0-20 µM Cytc, reduction compared to WT Cytc (% reduction compared to WT) was found to be 25.
The corresponding values for “phosphomimetic T58E cytochrome c (from UniProt P62897 1-105) (natural protein)” are 70, 3 µM and 45.
With “wild-type cytochrome c (rodent somatic) (from UniProt P62897 1-105) (natural protein)”, in test [2], the apparent Km of Cytc in the reaction with cow liver COX (150 nM; 0-20 µM Cytc; oxygen consumption, polarography, 25 °C) turned out to be 3 µM.
